Among the data in paper PMC4805485 are stoichiometry N (MyUb per diubiquitin) and fold reduction in binding affinity compared to the MyUb domain alone values, retold here.

In one assay the target is K63-linked diubiquitin (UniProt P0CG47). The assay can be described thus: SEC. For orientation: Size exclusion chromatography separates by hydrodynamic size, large species first.
Assay [1] addresses diubiquitin G76C linked via K63, conjugated to BODIPY TMR C5-maleimide (UniProt P0CG47). Nature of the assay: fluorescence polarisation. Background: Polarisation of emitted light reports the rotation of a fluorescent probe.

In the case of “MyUb (G1080-R1131) (from UniProt Q9UM54 1080-1131) (domain or fragment)”, the stoichiometry N (MyUb per diubiquitin) with K63-linked diubiquitin was determined as 1.
“myosin VI 1050-1131 (from UniProt Q9UM54 1050-1131) (domain or fragment)”: in assay [1], the fold reduction in binding affinity compared to the MyUb domain alone amounted to 4 fold.
